SEAP levels in passively immunized mice (% lower than in non-immunized controls) data for one molecule are collected here from patent US20240148841A1.

The target of this experiment is human IgG (of human serum; IgG against AAV8 in AAV8 positive human serum pools CP16 and P1) (human). In words: cell-based or functional assay.

B1: Xork1.3-Fc-HD-H435R (Fc fusion)
chain: MTLWADGVQVDDKDFKPSTENFGTNYLAAEYGIGKGYYDINKKFDGTDDDLCSGVVAANQLHWWLDRNKDYIEKYRQQSKDNGVTIGNTDIFELNKLHDEDQSNFFDFIKKSFGNKFLQPERLLNMYINGYGYLTSQDKAKTSQPSPSKLNFFQKVFKNNLLTDKTPINDIDEFSSQTKNALQNHKVLAVSFASIKNRGLGHVVTVWGADFDENGKVVALYVTDSDDRSKNIGNAKLGMKKLRIEVSAQDSSTIKLTGFEDKNSGGSLRHLYSLSTGEQIWKKYFEETEPKSSDKTHTCPPCPAPELLSSPSVFLFPPKPKDTLMISRTPEVTCVVVDVSHEDPEVKFNWYVDGVEVHNAKTKPREEQYNSTYRVVSVLTVLHQDWLNGKEYKCKVSNKALPAPIEKTISKAKGQPREPQVYTLPPSRDELTKNQVSLTCLVKGFYPSDIAVEWESNGQPENNYKTTPPVLDSDGSFFLYSKLTVDKSRWQQGNVFSCSVMHEALHNRYTQKSLSLSPG
For B1, the SEAP levels in passively immunized mice (% lower than in non-immunized controls) was 20.
